As a reminder, the Kd is the free concentration of one partner at which half of the binding sites on the other are occupied at equilibrium, for simple one-to-one binding. The low end stands for a tighter complex, the high end for a looser complex.

This note sets out measurements from publication doi:10.1101/2021.08.28.457928 (bioRxiv, 2021).

Sequences and labels used below:
B1: SNX2_(62-82) peptide (peptide)
peptide: TEVVLDDDREDLFAEATEEVS
notes: SNX2, human, residues 62 to 82; also called SNX2 62 to 82; second aDLF motif of SNX2; source: synthetic peptide (Genscript)
B2: isolated FERM domain of human SNX27 (domain or fragment, UniProt Q96L92 269-531, looked up)
chain: YNGVSDVELRVALPDGTTVTVRVKKNSTTDQVYQAIAAKVGMDSTTVNYFALFEVISHSFVRKLAPNEFPHKLYIQNYTSAVPGTCLTIRKWLFTTEEEILLNDNDLAVTYFFHQAVDDVKKGYIKAEEKSYQLQKLYEQRKMVMYLNMLRTCEGYNEIIFPHCACDSRRKGHVITAISITHFKLHACTEEGQLENQVIAFEWDEMQRWDTDEEGMAFCFEYARGEKKPRWVKIFTPYFNYMHECFERVFCELKWRKENIFQM
notes: FERM domain of human SNX27; The AlphaFold2 modelling took the FERM domain as residues 269 to 531; also called hSNX27_(FERM)
B3: SNX1_(35-51) peptide (peptide)
peptide: EAGDSDTEGEDIFTGAA
notes: SNX1, human, residues 35 to 51; also called first aDLF motif of human SNX1; source: synthetic peptide (Genscript)
B4: SNX2_(16-33) peptide (peptide)
peptide: TDFEDLEDGEDLFTSTVS
notes: SNX2, human, residues 16 to 33; also called SNX2 16 to 33; first aDLF motif of SNX2; source: synthetic peptide (Genscript)
B5: GST-mSNX1(1-139) (domain or fragment, mouse, UniProt Q9WV80 1-139, looked up)
chain: MASGGGGCSASERLPPPFPGMDPESEGAAGASEPEAGDSDTEGEDIFTGAAAATKPQSPKKTTSLFPIKNGSKENGIHEDQDQEPQDLFADATVELSLDSTQNNQKTMPGKTLTSHSPQEATNSPKPQPSYEELEEEEQ
notes: SNX1, mouse, residues 1 to 139; Vector pGEX4T-2, thrombin-cleavable GST; named GST-mSNX1(1-139) in the ITC; also called N-terminal extension of mouse SNX1; source: E. coli BL21 CodonPlus (DE3), purified (glutathione Sepharose, SEC); not shown: GST, N-terminal, kept
B6: SNX1_(75-92) peptide (peptide)
peptide: NGIHEEQDQEPQDLFADA
notes: SNX1, human, residues 75 to 92; also called SNX1 75 to 92; hSNX1_(75-92); source: synthetic peptide (Genscript)

Holding throughout (conditions): both partners purified
One experiment addresses T1, full-length mouse SNX27 (mouse, UniProt Q3UHD6 1-539).
T1 construct: SNX27, mouse, full length; Vector pMCSG7, ligation independent cloning; also called mSNX27FL
The experiment is described as follows: ITC; 800 μM SNX1 or SNX2 peptide titrated into 20 μM full-length mouse SNX27; 25 °C; 50 mM HEPES pH 7.5, 200 mM NaCl, 5% glycerol, 1 mM β-ME with 1:10 peptide buffer (100 mM Tris-HCl pH 10.6); single-site model. A general note: ITC needs no label: the signal is the heat of the interaction.

For experiment [1], the target named is T2, full-length mouse SNX1 with an N-terminal His-tag (mouse, UniProt Q9WV80 1-522).
T2 construct: SNX1, mouse, full length; Vector pMW172Kan; also called mSNX1FL; His-SNX1FL; source: E. coli BL21 CodonPlus (DE3), purified (TALON or Ni-NTA, SEC); not shown: His-tag, N-terminal, kept
The experiment is described as follows: ITC; 800 μM hSNX27 FERM titrated into 20 μM GST-mSNX1(1-139) or His-SNX1FL; 25 °C; 50 mM HEPES pH 7.5, 200 mM NaCl, 5% glycerol, 1 mM β-ME; single-site model.

The target in experiment [2] is B2. The experiment is described as above.
The target of experiment [3] is T3, human SNX27 full length, wild type (human, UniProt Q96L92 1-541).
T3 construct: SNX27, human, full length; also called hSNX27FL; hSNX27 WT
The experiment is described as follows: ITC; 600 μM SNX1(75-92) peptide titrated into 20 μM hSNX27 wild type or single-site mutant; 25 °C; 50 mM HEPES pH 7.5, 200 mM NaCl, 5% glycerol, 1 mM β-ME; single-site model.

A further experiment addresses T4, human SNX27(K496D) (human, UniProt Q96L92 1-541, K496D).
T4 construct: SNX27, human, full length; the text prints R496D, the methods and the legend K496D; also called hSNX27 K496D; SNX27(R496D)
Described as above.

As for B1, the Kd with full-length mouse SNX27 amounted to 22.6 µM.
For B2, in experiment [1], the Kd is 41 µM. This counts as double-digit micromolar.
In the experiment with full-length mouse SNX27, B3 displayed a Kd of 33.4 µM.
Molecule B4 registered a Kd with full-length mouse SNX27 of 37.8 µM.
The molecule B5 came in with a Kd in experiment [2] of 39.1 µM.
For the molecule B6, the values for the Kd (in experiment [3]; in the experiment with human SNX27(K496D); in the experiment with full-length mouse SNX27) were 12.7 µM, 56.4 µM and 13.3 µM, respectively.
